Assay results: patent US20170081406A1

Legend:
[1] = target: Human FcRn with human β2M on MDCK II clone 15 cells (human) (UniProt P55899); test: cell-based or functional assay
[2] = target: Human FcRn with human β2M on MDCK II clone 15 cells (human) (UniProt P55899)

Blockade of IgG intracellular uptake EC50 [1] [µg/mL]	Blockade of IgG recycling EC50 [1] [µg/mL]	Substance	further results
0.34	0.55	IgG1 IgM tail-piece, V308P (Fc-multimer) (Fc fusion)	
0.54	0.35	IgG1 IgM tail-piece, T307A (Fc-multimer) (Fc fusion)	
0.5		IgG4 IgM tail-piece, T307A (Fc-multimer) (Fc fusion)	
5.9	1	IgG4 IgM tail-piece, Wild-type (Fc-multimer) (Fc fusion)	
0.12	0.073	IgG1 IgM tail-piece, V308F (Fc-multimer) (Fc fusion)	

Further lines, the substance ahead of its results:

Substance	Blockade of IgG intracellular uptake EC50 [1] [µg/mL]	Blockade of IgG recycling EC50 [1] [µg/mL]	further results
IgG4 IgM tail-piece, V308P (Fc-multimer) (Fc fusion)	0.51	0.42	
IgG1 Fc IgM tp L309 (wild type IgG1 Fc-multimer) (from UniProt P0DOX5 228-449) (Fc fusion)			EC50, inhibition of FcRn mediated IgG recycling (cell lysates), MDCK II clone 15 cells, biotinylated human IgG, MSD detection [2]: 0.37 µg/mL; EC50, inhibition of FcRn mediated IgG recycling (culture media), MDCK II clone 15 cells, biotinylated human IgG, MSD detection [2]: 0.33 µg/mL
human IgG1 Fc-multimer IgM tp L309C (from UniProt P0DOX5 228-449) (Fc fusion)			EC50, inhibition of FcRn mediated IgG recycling (cell lysates), MDCK II clone 15 cells, biotinylated human IgG, MSD detection [2]: 7.28 µg/mL
IgG4 IgM tail-piece, V308F (Fc-multimer) (Fc fusion)	0.42	0.56	
IgG1 IgM tail-piece, Wild-type (Fc-multimer) (Fc fusion)	4.4	0.33	
IgG1 IgM tail-piece, H310L (Fc-multimer) (Fc fusion)			Blockade of IgG recycling (% inhibition at 100 µg/ml) [1]: 45
